Measured values published in US7265202 (University of California, dated 2007).
Blank lines part the entries; values can stand above or below the binder they belong to.

Assays:
[1] = target: STAT3 in cytokine-treated human cells (CNTF, OM or IL6) (human, UniProt P40763 2-770, limits assumed, tyrosine phosphorylated after cytokine treatment (site not given)); assay: co-immunoprecipitation with anti-PIAS1n from HepG2 cells untreated or treated with IL6 or IFN-γ, anti-STAT3 blot
[2] = target: STAT2 in IFN-treated human Daudi B cells (human, UniProt P52630 1-851); assay: co-immunoprecipitation with anti-PIAS1n from IFN-treated Daudi B cells, immunoblot with anti-STAT1 and anti-STAT2
STAT2 in IFN-treated human Daudi B cells, sequence (P52630 whole entry): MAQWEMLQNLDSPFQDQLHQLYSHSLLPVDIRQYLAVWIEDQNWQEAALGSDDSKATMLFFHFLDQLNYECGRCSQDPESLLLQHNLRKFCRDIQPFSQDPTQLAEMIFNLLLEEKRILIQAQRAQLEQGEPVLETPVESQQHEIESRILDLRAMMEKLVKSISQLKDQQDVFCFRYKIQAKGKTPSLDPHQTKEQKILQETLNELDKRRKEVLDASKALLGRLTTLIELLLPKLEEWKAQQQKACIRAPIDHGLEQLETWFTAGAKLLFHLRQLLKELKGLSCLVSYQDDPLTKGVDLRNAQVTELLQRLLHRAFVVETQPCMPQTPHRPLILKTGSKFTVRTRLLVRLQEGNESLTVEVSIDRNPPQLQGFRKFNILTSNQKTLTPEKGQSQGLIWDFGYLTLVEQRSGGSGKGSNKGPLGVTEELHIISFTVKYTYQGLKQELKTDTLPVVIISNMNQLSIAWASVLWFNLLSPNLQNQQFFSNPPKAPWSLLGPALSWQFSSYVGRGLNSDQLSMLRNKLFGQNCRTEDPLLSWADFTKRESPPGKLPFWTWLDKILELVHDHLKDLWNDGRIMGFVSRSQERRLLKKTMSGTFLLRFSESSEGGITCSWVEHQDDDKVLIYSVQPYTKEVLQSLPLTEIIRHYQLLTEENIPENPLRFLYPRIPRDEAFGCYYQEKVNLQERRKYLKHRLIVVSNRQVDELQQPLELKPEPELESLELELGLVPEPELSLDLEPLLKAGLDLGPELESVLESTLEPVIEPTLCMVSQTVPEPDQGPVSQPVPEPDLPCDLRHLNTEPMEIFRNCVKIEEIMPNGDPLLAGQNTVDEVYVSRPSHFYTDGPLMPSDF
Experimental: Daudi cells were treated with […] for the times indicated. Whole cell extracts were prepared and one half of these extracts were used for immunoprecipitation with anti-PIAS1n (left panel). Immunoprecipitation was carried out as described in (A) and the filter was probed with anti-STAT1 and anti-STAT2. The same filter was washed and reprobed with anti-PIAS1n (lower panel). The other half of protein extracts were subjected to immunoprecipitation with anti-STAT1 (right panel). The filter was probed with a mixture of anti-STAT1 and anti-STAT2 antibodies. p-STAT1: phosphorylated STAT1.
Human Daudi B cells were untreated or treated with IFN-α for various time periods. Protein extracts were prepared and subjected to immunoprecipitation with anti-PIAS1n followed by immunoblot with both anti-STAT1 and STAT2 antibodies. While STAT1 was associated with PIAS1 in IFN-treated cells, STAT2 was absent in PIAS1 immunoprecipitates (FIG. 8B).

[3] = target: T1, STAT1 in IL6-treated murine M1 cells (murine, UniProt P42225 2-749, the filing says IL6 stimulation can induce tyrosine phosphorylation of STAT1); assay: co-immunoprecipitation with anti-PIAS3c from M1 cells, blot reprobed with antibody to STAT1
T1 sequence (looked up): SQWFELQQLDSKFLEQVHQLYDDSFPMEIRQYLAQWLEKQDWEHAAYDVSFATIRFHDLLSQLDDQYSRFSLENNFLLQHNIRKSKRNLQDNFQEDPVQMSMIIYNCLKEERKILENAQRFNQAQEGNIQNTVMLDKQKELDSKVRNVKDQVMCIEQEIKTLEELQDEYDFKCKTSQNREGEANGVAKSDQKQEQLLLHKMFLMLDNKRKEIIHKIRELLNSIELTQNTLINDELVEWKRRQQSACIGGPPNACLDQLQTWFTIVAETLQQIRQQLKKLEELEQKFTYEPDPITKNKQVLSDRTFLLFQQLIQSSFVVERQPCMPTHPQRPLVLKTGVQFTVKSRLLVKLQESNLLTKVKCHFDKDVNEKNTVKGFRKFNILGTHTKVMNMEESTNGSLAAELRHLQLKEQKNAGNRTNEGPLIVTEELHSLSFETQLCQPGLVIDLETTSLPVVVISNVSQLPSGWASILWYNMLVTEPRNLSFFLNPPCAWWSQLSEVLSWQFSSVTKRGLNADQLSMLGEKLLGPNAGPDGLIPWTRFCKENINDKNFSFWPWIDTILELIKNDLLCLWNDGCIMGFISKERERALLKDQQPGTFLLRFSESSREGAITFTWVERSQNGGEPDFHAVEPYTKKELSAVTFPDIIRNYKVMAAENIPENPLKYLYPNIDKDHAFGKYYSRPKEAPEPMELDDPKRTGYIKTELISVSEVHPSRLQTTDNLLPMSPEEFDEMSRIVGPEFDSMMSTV
Experimental: To identify which STAT protein interacts with PIAS3, protein extracts were prepared from murine myeloblast M1 cells, which were untreated or treated with IL6. Proteins immunoprecipitated with anti-PIAS3c were analyzed by protein immunoblot with anti-STAT3. STAT3 was present in a PIAS3 immunoprecipitate from IL6 treated M1 cells but not in an immunoprecipitate from untreated M1 cells (FIG. 2A). […] IL6 stimulation can induce tyrosine phosphorylation of STAT1 as well as STAT3 (Sadowski et al. (1993)). The protein blot was therefore washed and reprobed with antibody to STAT1. STAT1 was not present in PIAS3 immunoprecipitates (FIG. 2A). Furthermore, PIAS3 was not found to be associated with STAT1 in a number of cell lines treated with interferon-γ.
Protein extracts from M1 cells, untreated (−) or treated with IL6 for 10 min (+), were subjected to immunoprecipitation (IP) with anti-PIAS3c. The blot was probed with anti-STAT. The same blot was then reprobed with anti-PIAS3c. The filter was washed and reprobed with anti-STAT1.

[4] = target: T2, STAT1 in interferon-treated human cells (human, UniProt P42224 2-750, limits assumed, phosphotyrosine at Tyr-701 (IFN-induced)); assay: co-immunoprecipitation with anti-PIAS3c from HepG2 cells untreated or treated with IL6 or IFN-γ, anti-STAT1 blot
T2 construct: also called p-STAT1; wild type STAT1
T2 sequence (looked up): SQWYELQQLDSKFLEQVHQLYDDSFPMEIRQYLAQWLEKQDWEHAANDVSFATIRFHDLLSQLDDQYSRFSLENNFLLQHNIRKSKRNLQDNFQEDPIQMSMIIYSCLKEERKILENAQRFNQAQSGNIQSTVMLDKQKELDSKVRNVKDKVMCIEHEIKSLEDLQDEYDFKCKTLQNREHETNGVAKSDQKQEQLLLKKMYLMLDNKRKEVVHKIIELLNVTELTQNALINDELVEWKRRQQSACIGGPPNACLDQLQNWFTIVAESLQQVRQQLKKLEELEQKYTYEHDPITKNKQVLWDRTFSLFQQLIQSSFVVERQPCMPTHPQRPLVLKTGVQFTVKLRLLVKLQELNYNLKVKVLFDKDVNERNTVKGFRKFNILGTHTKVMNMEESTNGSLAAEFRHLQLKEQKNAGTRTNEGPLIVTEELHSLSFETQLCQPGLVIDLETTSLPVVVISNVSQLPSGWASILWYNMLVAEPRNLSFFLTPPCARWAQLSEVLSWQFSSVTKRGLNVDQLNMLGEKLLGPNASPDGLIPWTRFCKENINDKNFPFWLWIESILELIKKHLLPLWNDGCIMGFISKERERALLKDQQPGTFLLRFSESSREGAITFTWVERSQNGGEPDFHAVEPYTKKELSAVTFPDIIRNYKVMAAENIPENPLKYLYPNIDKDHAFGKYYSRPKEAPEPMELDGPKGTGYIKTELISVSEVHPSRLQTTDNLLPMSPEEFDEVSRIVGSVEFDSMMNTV

STAT3 in cytokine-treated human cells (CNTF, OM or IL6), sequence (P40763 2-770 limits assumed): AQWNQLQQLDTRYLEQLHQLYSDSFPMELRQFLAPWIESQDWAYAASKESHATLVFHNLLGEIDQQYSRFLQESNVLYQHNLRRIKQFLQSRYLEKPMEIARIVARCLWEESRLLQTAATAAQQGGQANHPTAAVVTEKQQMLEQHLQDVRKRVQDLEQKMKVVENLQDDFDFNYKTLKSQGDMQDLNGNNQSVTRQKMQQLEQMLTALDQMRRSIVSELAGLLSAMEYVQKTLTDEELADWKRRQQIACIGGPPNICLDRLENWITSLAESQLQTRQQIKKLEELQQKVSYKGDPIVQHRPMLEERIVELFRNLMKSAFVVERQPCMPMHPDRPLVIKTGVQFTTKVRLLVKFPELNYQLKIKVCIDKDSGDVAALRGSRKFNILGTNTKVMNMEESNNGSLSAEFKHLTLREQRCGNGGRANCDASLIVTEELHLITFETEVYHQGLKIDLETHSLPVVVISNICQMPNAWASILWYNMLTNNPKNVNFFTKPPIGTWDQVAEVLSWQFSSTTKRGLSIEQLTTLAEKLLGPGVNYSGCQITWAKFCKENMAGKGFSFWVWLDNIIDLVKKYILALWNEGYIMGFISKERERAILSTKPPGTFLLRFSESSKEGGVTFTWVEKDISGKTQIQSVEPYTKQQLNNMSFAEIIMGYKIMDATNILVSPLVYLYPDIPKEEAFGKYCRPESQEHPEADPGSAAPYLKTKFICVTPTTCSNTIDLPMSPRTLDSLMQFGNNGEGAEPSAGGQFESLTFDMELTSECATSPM

binding result [1]: no binding | binding result [2]: no binding
B1: human PIAS1 (other)
chain: ADSAELKQMVMSLRVSELQVLLGYAGRNKHGRKHELLTKALHLLKAGCSPAVQMKIKELYRRRFPQKIMTPADLSIPNVHSSPMPATLSPSTIPQLTYDGHPASSPLLPVSLLGPKHKLELPHLTSALHPVHPDIKLQKLPFYDLLDELIKPTSLASDNSQRFRETCFAFALTPQQVQQISSSMDISGTKCDFTVQVQLRFCLSETSCPQEDHFPPNLCVKVNTKPCSLPGYLPPTKNGVEPKRPSRPINITSLVRLSTTVPNTMCSWTAEIGRNYSMAVYLVKQLSSTVLLQRLRAKGIRNPDHSRALIKEKLTADPDSEIATTSLRVSLLCPLGKMRLTIPCRALTCSHLQCFDATLYIQMNEKKPTWVCPVCDKKAPYEHLIIDGLFMEILKYCTDCDEIQFKEDGTWAPMRSKKEVQEVSASYNGVDGCLSSTLEHQVASHHQSSNKNKKVEVIDLTIDSSSDEEEEEPSAKRTCPSLSPTSPLNNKGILSLPHQASPVSRTPSLPAVDTSYINTSLIQDYRHPFHMTPMPYDLQGLDFFPFLSGDNQHYNTSLLAAAAAAVSDDQDLLHSSRFFPYTSSQMFLDQLSAGGSTSLPTTNGSSSGSNSSLVSSNSLRESHSHTVTNRSSTDTASIFGIIPDIISLD
notes: also called hPIAS1

binding result [3]: no binding
B2: murine PIAS3 (other)
chain: MVMSFRVSELQVLLGFAGRNKSGRKHELLAKALHLLKSSCAPSVQMKIKELYRRRFPRKTLGPSDLSLLSLPPGTSPPVHPDVTMKPLPFYEVYGELIRPTTLASTSSQRFEEAHFTFALTPQQLQQILTSREVLPGAKCDYTIQVQLRFCLCETSCPQEDYFPPNLFVKVNGKLCPLPGYLPPTKNGAEPRGPAVRSTSHPWLDSQPLSPTPSLLIGHLSLDGITPCPCLVRQLTAGTLLQKLRAKGIRNPDHSRALIKEKLTADPDSEVATTSLPGVTHVPARKMRLTVPCRALTCAHLQSFDAALYLQMNEKKPTWTCPVCDKKAPYESLIIDGLFMEILNSCSDDDEIQFMEDGSWCPMKPKKEASEVCPPPGYGLDGLQYSAVQEGIQPESKKRVEVIDLTIESSSDEEDLPPTKKHCSPTSAAIPALPGSKGALTSGHQPSSVLRSPAMGTLGSDFLSSLPVHEYPPAFPLGADIQGLDLFSFLQTESQQYGPSVIISLDEQDTLGHFFQYRGTPSHFLGPLAPTLGSCHGSSTPAPPPGRVSSIVAPGSSLREGHGGPLPSGPSLTGCRSDVISLD
notes: Endogenous protein immunoprecipitated with anti-PIAS3c from M1 cell extracts; also called mPIAS3; mouse PIAS3

binding result [4]: no binding
B3: human PIAS3 (other)
chain: MVMSFRVSELQVLLGFAGRNKSGRKHELLAKALHLLKSSCAPSVQMKIKELYRRRFPRKTLGPSDLSLLSLPPGTSPPVHPDVTMKPLPFYEVYGELIRPTTLASTSSQRFEEAHFTFALTPQQLQQILTSREVLPGAKCDYTIQVQLRFCLCETSCPQEDYFPPNLFVKVNGKLCPLPGYLPPTKNGAEPRGPAVRSTSHPWLDSQPLSPTPSLLIGMLSLDGITPCPCLVRQLTAGTLLQKLRAKGIRNPDHSRALIKEKLTADPDSEVATTSLPGVTHVPARKMRLTVPCRALTCAHLQSFDAALYLQMNEKKPTWTCPVCDKKAPYESLIIDGLFMEILNSCSDCDEIQFMEDGSWCPMKPKKEASEVCPPPGYGLDGLQYSAVQEGIQPESKKRVEVIDLTIESSSDEEDLPPTKKQCSVTSAAIPALLGSKGVLTSGHQPSSVLRSPAMGTLGSDFLSSLPVHEYPPAFPLGADIQGLDLFSFLQTESQQYGPSVIISLDEQDTLGHFFQYRGTPSHFLGPLAPTLGSCHGSSTPAPPPGRVSSIVAPGSSLREGHGGPLPSGPSLTGCRSDVISLD
notes: Endogenous protein immunoprecipitated with anti-PIAS3c from human HepG2 cells; also called hPIAS3
